# Measured values as given in IntAct's records for PubMed 20308558.
# B1: Ras-related protein Rab-11A (Homo sapiens), P62491 (parent)
# chain: MGTRDDEYDYLFKVVLIGDSGVGKSNLLSRFTRNEFNLESKSTIGVEFATRSIQVDGKTIKAQIWDTAGQERYRAITSAYYRGAVGALLVYDIAKHLTYENVERWLKELRDHADSNIVIMLVGNKSDLRHLRAVPTDEARAFAEKNGLSFIETSALDSTNVEAAFQTILTEIYRIVSQKQMSDRRENDMSPSNNVVPIHVPPTTENKPKVQCCQNI
# partner: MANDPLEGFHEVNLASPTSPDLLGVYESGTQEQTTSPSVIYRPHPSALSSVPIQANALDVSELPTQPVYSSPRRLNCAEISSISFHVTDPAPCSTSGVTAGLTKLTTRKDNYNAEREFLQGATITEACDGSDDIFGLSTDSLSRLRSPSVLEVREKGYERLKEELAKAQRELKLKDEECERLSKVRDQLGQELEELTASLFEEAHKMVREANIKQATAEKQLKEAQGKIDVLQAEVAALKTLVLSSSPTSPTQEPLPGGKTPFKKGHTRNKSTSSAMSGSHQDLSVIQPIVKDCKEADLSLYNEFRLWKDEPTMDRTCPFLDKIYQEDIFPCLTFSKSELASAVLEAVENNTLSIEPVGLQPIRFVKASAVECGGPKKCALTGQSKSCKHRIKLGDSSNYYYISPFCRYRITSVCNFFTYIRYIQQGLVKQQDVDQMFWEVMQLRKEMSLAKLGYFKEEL
# Variants of: B1
# Settings: with RAB3IP
row,effect of a mutation on the interaction,Variant
1,decreasing interaction,S25N
2,increasing interaction,Q70L
